Measurements from patent US20190092832A1 (published 2019).

Target: T1, interferon-alpha/beta receptor alpha chain (IFNAR1) (UniProt P17181 28-436, limits assumed)
T1 sequence (looked up): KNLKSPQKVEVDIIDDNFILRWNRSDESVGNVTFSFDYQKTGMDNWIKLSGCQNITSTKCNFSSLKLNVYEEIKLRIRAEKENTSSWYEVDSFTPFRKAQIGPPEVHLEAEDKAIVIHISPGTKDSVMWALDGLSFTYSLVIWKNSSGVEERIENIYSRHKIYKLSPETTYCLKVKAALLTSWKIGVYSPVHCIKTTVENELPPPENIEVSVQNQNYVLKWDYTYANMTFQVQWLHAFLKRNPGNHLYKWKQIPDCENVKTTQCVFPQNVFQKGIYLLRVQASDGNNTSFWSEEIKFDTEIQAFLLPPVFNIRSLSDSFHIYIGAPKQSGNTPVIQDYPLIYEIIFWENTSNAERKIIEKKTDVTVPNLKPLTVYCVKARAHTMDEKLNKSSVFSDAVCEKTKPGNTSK
Assay: intrinsic fluorescence quenching of IFNAR1 titrated with peptide, double-log plot, 298 K
Protocol: […] Protein intrinsic fluorescence experiments were carried out at constant IFNAR1 concentration titrated with different concentrations of IFNβ analog peptide to reach a maximum molar ratio of the IFNβ analog peptide-IFNAR1, and the complex maximum molar ratio of the IFNβ analog peptide-IFNAR1 was 10.
In these experiments, 1.0 ml solution with a fixed concentration of the […] was precisely added into the quartz cell with a 1 cm path length and was manually titrated by successive additions of the IFNβ analog peptide at 5 min time intervals. The fluorescence emission spectra were then measured, and the maximum fluorescence intensity at a wavelength of about 340 nm was used to calculate the binding constant parameters.
Fluorescence quenching data from the interaction of the IFNβ analog peptide and IFNAR1 were analyzed to obtain various binding parameters. The binding constant (Kₐ) and the number of binding (n) were calculated according to the Eq. 1, where F₀ is the fluorescence emission intensities of IFNAR1 in the absence of the IFNβ analog peptide, F is the fluorescence emission intensities of IFNAR1 in the presence of the IFNβ analog peptide, [P] is the IFNβ analog peptide concentration, Kₐ is the binding constant, and n is the apparent molar ratio of [IFNβ analog peptide]/[IFNAR1] complex.

Ka: 3.67e+07 M⁻¹
Binder: MLQNGRDVRKRGFSDTGLRKLGRVNLL (also called MSPEP27) [IFNβ analog peptide with SEQ ID No. 2]
